Experimental data from patent US20150004189A1 (published 2015).

How the values were obtained:
[1] = target: T1, HLA DP molecule DPB1*0201 (human); assay: competition vs radiolabeled peptide, purified HLA-DP
T1 chain 1: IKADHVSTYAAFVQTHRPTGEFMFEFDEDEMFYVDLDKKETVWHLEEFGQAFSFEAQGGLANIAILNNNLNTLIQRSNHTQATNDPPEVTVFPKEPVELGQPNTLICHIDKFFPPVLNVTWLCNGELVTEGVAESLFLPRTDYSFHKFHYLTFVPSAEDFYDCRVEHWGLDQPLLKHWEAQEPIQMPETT
T1 chain 2: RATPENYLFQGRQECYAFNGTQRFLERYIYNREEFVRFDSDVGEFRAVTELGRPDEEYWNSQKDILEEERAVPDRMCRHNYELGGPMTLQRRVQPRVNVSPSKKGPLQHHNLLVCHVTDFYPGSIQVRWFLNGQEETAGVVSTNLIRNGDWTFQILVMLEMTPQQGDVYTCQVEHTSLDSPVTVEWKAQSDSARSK

[2] = target: T2, HLA DP molecule DPB1*0401 (human); assay: as above
T2 chain 1: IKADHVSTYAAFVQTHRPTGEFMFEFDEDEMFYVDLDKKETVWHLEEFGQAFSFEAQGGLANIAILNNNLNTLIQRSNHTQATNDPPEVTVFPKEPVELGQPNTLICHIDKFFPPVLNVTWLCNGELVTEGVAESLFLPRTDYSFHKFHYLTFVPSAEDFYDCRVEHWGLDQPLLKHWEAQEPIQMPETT
T2 chain 2: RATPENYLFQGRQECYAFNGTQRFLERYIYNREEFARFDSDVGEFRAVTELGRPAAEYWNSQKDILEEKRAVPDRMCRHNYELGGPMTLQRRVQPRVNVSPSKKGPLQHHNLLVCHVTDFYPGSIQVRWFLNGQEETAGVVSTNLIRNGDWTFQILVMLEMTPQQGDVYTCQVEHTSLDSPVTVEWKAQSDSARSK

[3] = target: HLA DQ molecule DQB1*0602 (human); assay: inhibition of radiolabeled peptide binding to purified HLA DQ
[4] = target: HLA DQ molecule DQB1*0202 (human); assay: inhibition of radiolabeled peptide binding to purified HLA class II
[5] = target: HLA DQ molecule DQB1*0502 (human); assay: as above
[6] = target: HLA DQ molecule DQB1*0503 (human); assay: as above
[7] = target: HLA DQ molecule DQB1*0602 (human); assay: as above
[8] = target: HLA-DP molecule DPB1*1401 (human); assay: inhibition of radiolabeled peptide binding to purified HLA-DP
[9] = target: HLA-DP molecule DPB1*2001 (human); assay: as above
[10] = target: T3, HLA-DP molecule DPB1*0401 (human); assay: as above
T3 chain 1: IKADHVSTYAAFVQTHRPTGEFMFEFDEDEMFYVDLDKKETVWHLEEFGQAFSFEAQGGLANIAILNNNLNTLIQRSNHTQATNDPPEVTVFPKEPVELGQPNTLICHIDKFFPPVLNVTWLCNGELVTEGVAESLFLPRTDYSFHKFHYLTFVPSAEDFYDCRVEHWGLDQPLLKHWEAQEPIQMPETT
T3 chain 2: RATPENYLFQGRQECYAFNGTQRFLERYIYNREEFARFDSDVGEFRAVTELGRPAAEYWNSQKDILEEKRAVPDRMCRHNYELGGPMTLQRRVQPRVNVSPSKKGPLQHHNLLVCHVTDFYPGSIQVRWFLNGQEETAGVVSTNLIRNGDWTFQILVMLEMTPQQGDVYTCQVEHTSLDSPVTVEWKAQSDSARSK

[11] = target: HLA-DQ molecule DQB1*0202 (human); assay: competition: inhibition of radiolabeled peptide binding to purified HLA
[12] = target: HLA-DQ molecule DQB1*0503 (human); assay: as above
[13] = target: HLA-DQ molecule DQB1*0602 (human); assay: as above
[14] = target: HLA DQ molecule DQB1*0202 (human); assay: inhibition of radiolabeled peptide binding to purified HLA class II; remark: listed apart in the source
[15] = target: HLA DQ molecule DQB1*0502 (human); assay: as above; remark: listed apart in the source
[16] = target: HLA DQ molecule DQB1*0503 (human); assay: as above; remark: listed apart in the source
[17] = target: T4, HLA-DP molecule DPB1*0101 (human, UniProt P20036 29-222; P04440 30-225, limits assumed); assay: inhibition of radiolabeled peptide binding to purified HLA-DP
T4 MHC II alpha: not shown
T4 MHC II beta: not shown

[18] = target: T5, HLA-DP molecule DPB1*0201 (human, UniProt P20036 29-222; P04440 30-225, limits assumed); assay: as above
T5 MHC II alpha: not shown
T5 MHC II beta: not shown

[19] = target: T6, HLA-DP molecule DPB1*0501 (human, UniProt P20036 29-222; P04440 30-225, limits assumed); assay: as above
T6 MHC II alpha: not shown
T6 MHC II beta: not shown

[20] = target: HLA-DQ molecule DQB1*0502 (human); assay: competition: inhibition of radiolabeled peptide binding to purified HLA
[21] = target: HLA DQ molecule DQB1*0602 (human); assay: inhibition of radiolabeled peptide binding to purified HLA class II; remark: listed apart in the source
[22] = target: HLA DQ molecule DQB1*0202 (human); assay: inhibition of radiolabeled peptide binding to purified HLA DQ
[23] = target: HLA DQ molecule DQB1*0502 (human); assay: as above
[24] = target: HLA DQ molecule DQB1*0503 (human); assay: as above
[25] = target: T7, HLA DQ molecule DQB1*0302 (human, UniProt P01909 24-216; P01920 33-230, limits assumed); assay: inhibition of radiolabeled peptide binding to purified HLA class II
T7 MHC II alpha: not shown
T7 MHC II beta: not shown

[26] = target: T8, HLA DQ molecule DQB1*0501 (human, limits assumed); assay: as above
T8 MHC II alpha: not shown
T8 MHC II beta: not shown

DEYVEQVAQYKALPV [Fel d 1 1 peptide, position 41, DEYVEQVAQYKALPV (Peptide ID 3324.1049)]
IC50 [1]: 1120 nM
IC50 [2]: 533 nM

FTSLEYIEAAKWLLP [Sal k 1 1 peptide, position 321 (Peptide ID 3324.1589)]
IC50 [3]: 1300 nM

QVAQYKALPVVLENA [Fel d 1 1 (46-60) peptide QVAQYKALPVVLENA, Peptide ID 3324.1051]
IC50 [4]: 21400 nM
IC50 [5]: 552 nM
IC50 [6]: 610 nM
IC50 [7]: 1600 nM

MRNVFDDVVPADFKV [Lol p 2 peptide, position 76, MRNVFDDVVPADFKV (Peptide ID 3337.0030)]
IC50 [8]: 24200 nM
IC50 [9]: 82 nM

FKAAVAAAAGAPPAD [Poa p 5 peptide, position 61, FKAAVAAAAGAPPAD (Peptide ID 3324.1575)]
IC50 [9]: 2940 nM
IC50 [10]: 28900 nM

GGRLAFQEFMIVPCE [Alt a 6 peptide, position 161, Peptide ID 3324.0073]
IC50 [11]: 32100 nM
IC50 [12]: 4940 nM
IC50 [13]: 1290 nM

LIEKINAGFKAAVAA [Lol p 5 1 peptide, position 71, LIEKINAGFKAAVAA (Peptide ID 3324.1175)]
IC50 [8]: 2420 nM

DSYKFIPTLVAAVKQ [Lol p 5 1 peptide, position 236, DSYKFIPTLVAAVKQ (Peptide ID 3324.1165), listing 1 of 2 here]
IC50 [14]: 5860 nM
IC50 [15]: 50000 nM
IC50 [16]: 4640 nM

DSYKFIPTLVAAVKQ [Lol p 5 1 peptide, position 236, DSYKFIPTLVAAVKQ (Peptide ID 3324.1165), listing 2 of 2 here]
IC50 [17]: 79 nM
IC50 [18]: 69 nM
IC50 [19]: 6.9 nM
IC50 [9]: 12 nM

INELIASGSEKLASV [Alt a 5 peptide, position 51, Peptide ID 3324.0065]
IC50 [20]: 25900 nM
IC50 [12]: 7540 nM
IC50 [13]: 302 nM

AQGKAFYEAVAKAHQ [Alt a 7 peptide, position 190, Peptide ID 3324.0080]
IC50 [11]: 50000 nM
IC50 [13]: 2360 nM

PAAAYATATPAAATA [Lol p 5 1 peptide, position 306, PAAAYATATPAAATA (Peptide ID 3324.1184), listing 1 of 2 here]
IC50 [14]: 679 nM
IC50 [15]: 7450 nM
IC50 [21]: 224 nM

EGTVDFIFGEARSLY [Sal k 1 1 peptide, position 191 (Peptide ID 3324.1590)]
IC50 [22]: 3120 nM
IC50 [23]: 6850 nM
IC50 [24]: 2360 nM

PAAAYATATPAAATA [Lol p 5 1 peptide, position 306, PAAAYATATPAAATA (Peptide ID 3324.1184), listing 2 of 2 here]
IC50 [18]: 3490 nM
IC50 [19]: 12400 nM
IC50 [8]: 299 nM
IC50 [9]: 611 nM

RYANPIAFFRKEPLK [Lol p 11 peptide, position 111, RYANPIAFFRKEPLK (Peptide ID 3324.1138)]
IC50 [14]: 26000 nM
IC50 [15]: 793 nM
IC50 [16]: 1600 nM
IC50 [21]: 9740 nM

LWEVKSAKPLTGPMN [Lol p 3 peptide, position 51, LWEVKSAKPLTGPMN (Peptide ID 3337.0031)]
IC50 [8]: 18600 nM
IC50 [9]: 671 nM

AETCPIFYDVFFAVA [Fel d 1 2 peptide, position 21, AETCPIFYDVFFAVA (Peptide ID 3324.1056)]
IC50 [1]: 8.1 nM
IC50 [2]: 5.6 nM

AIVYYSMYGHIKKMA [Alt a 7 (6-20) peptide AIVYYSMYGHIKKMA, Peptide ID 3324.0085]
IC50 [4]: 6240 nM
IC50 [7]: 3350 nM

AETCPIFYDVFFAVA [Fel d 1 2 (21-35) peptide AETCPIFYDVFFAVA, Peptide ID 3324.1056]
IC50 [4]: 2100 nM

PAVKYIEPDMIVNAT [Pen ch 13 (101-115) peptide PAVKYIEPDMIVNAT, Peptide ID 3324.1304]
IC50 [25]: 822 nM
IC50 [26]: 119 nM
IC50 [5]: 1960 nM
IC50 [6]: 1790 nM
IC50 [7]: 549 nM

FKAAVAAAAGAPPAD [Poa p 5 peptide, position 61 (Peptide ID 3324.1575)]
IC50 [22]: 25700 nM
IC50 [23]: 6780 nM
IC50 [24]: 1380 nM
IC50 [3]: 793 nM

ATPEAKFDSFVAAFT [Poa p 5 peptide, position 121 (Peptide ID 3324.1570)]
IC50 [23]: 8000 nM
IC50 [24]: 910 nM

DAYVATLTEALRVIA [Lol p 5 1 peptide, position 151, DAYVATLTEALRVIA (Peptide ID 3324.1167)]
IC50 [8]: 4400 nM
IC50 [9]: 597 nM
IC50 [10]: 515 nM

IFYDVFFAVANGNEL [Fel d 1 2 peptide, position 26, IFYDVFFAVANGNEL (Peptide ID 3324.1052)]
IC50 [1]: 89 nM
IC50 [2]: 242 nM

DINVGFKAAVAAAAG [Poa p 5 peptide, position 56, DINVGFKAAVAAAAG (Peptide ID 3324.1571)]
IC50 [9]: 295 nM
IC50 [10]: 20700 nM

DINVGFKAAVAAAAG [Poa p 5 peptide, position 56 (Peptide ID 3324.1571)]
IC50 [23]: 5410 nM
IC50 [3]: 34 nM

GSCWAFSGVAATESA [Der f 1 peptide, position 131, GSCWAFSGVAATESA (Peptide ID 3324.0670)]
IC50 [1]: 9310 nM
IC50 [2]: 14400 nM

DAFIAALTEALRVIA [Pha a 5 peptide, position 121, DAFIAALTEALRVIA (Peptide ID 3324.1432)]
IC50 [8]: 29700 nM
IC50 [9]: 31 nM

IKSDKPLKGPFNFRF [Lol p 2 peptide, position 56, IKSDKPLKGPFNFRF (Peptide ID 3324.1140)]
IC50 [15]: 38200 nM
IC50 [16]: 50000 nM
IC50 [21]: 50000 nM

NGNELLLDLSLTKVN [Fel d 1 2 peptide, position 36, NGNELLLDLSLTKVN (Peptide ID 3324.1055)]
IC50 [2]: 590 nM

QKLMEDINVGFKAAV [Poa p 5 peptide, position 51 (Peptide ID 3324.1580)]
IC50 [22]: 8070 nM
IC50 [24]: 5210 nM
IC50 [3]: 1290 nM

NALSVLDKIYTSPLC [Fel d 1 1 peptide, position 78, NALSVLDKIYTSPLC (Peptide ID 3324.1050)]
IC50 [1]: 575 nM
IC50 [2]: 349 nM

IAFFRKEPLKECGGI [Lol p 11 peptide, position 116, IAFFRKEPLKECGGI (Peptide ID 3337.0029)]
IC50 [14]: 26200 nM
IC50 [15]: 1440 nM
IC50 [16]: 903 nM
IC50 [21]: 50000 nM

ATPEAKFDSFVAAFT [Poa p 5 peptide, position 121, ATPEAKFD5FVAAFT as printed in Table 8 (Peptide ID 3324.1570)]
IC50 [8]: 2770 nM
IC50 [9]: 3240 nM
IC50 [10]: 4850 nM

NGNELLLDLSLTKVN [Fel d 1 2 (36-50) peptide NGNELLLDLSLTKVN, Peptide ID 3324.1055]
IC50 [4]: 8020 nM
IC50 [5]: 2860 nM
IC50 [6]: 9370 nM

NDKFTVFEGAFNKAI [Pha a 5 peptide, position 181, NDKFTVFEGAFNKAI (Peptide ID 3324.1442)]
IC50 [17]: 613 nM
IC50 [18]: 28 nM
IC50 [9]: 97 nM
IC50 [10]: 177 nM
